Measurements from patent US20240094220A1 (NORTHEASTERN UNIVERSITY, published 2024).

Target: T1, mouse PD-L1 on the surface of DC 2.4 dendritic cells (mouse, UniProt Q9EP73 19-290)
T1 construct: whole, on cells; also called Programmed Death-Ligand 1
Experiment: flow cytometry on DC 2.4 cells, purified Nb detected with fluorophore-conjugated anti-FLAG antibody
Description: While the majority of anti-PD-L1 and anti-CTLA-4 Nbs are currently produced intracellularly in E. coli, the lengthy processes of lysing bacteria and removing endotoxins may dramatically increase costs and demand a centralized facility for production. […] Of note, in the shake-flask expression system, anti-PD-L1 and anti-CTLA-4 Nbs can be secreted into the supernatant of B. subtilis culture at ˜15 mg per liter of culture. To further confirm that these Nbs remain functional following secretion and purification, the mouse dendritic cell line DC 2.4 was chosen because it is known to constitutively express the immunoinhibitory receptor PD-L1 on the cell surface (FIG. 5, Panel A), and it was also validated the expression of PD-L1 by a commercial antibody specific for mouse PD-L1. […] The stained samples were analyzed by flow cytometry and fluorescence microscopy—results of flow cytometry indicated the specific binding of purified anti-PD-L1 Nbs and no binding for the anti-caffeine Nb control in comparison to the unstained sample (FIG. 5, Panel B). […] To further test whether the purification step could be bypassed by directly using bacterial supernatant, 200 μl of the original B. subtilis supernatant containing the anti-PD-L1 Nb was applied to stain ˜one million DC 2.4 cells for fluorescence microscopy.

T1 sequence (Q9EP73 19-290): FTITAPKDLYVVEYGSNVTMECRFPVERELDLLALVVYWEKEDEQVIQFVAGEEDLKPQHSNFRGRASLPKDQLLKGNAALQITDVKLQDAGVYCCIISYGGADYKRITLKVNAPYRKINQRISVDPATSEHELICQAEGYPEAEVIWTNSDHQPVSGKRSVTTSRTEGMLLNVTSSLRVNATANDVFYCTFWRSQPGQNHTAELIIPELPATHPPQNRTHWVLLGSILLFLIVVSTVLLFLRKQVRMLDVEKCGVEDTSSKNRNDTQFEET

- binding result: no binding
B1: anti-caffeine nanobody secreted from B. subtilis (CBD fusion, with FLAG epitope) (VHH, not shown: large carriers)
VHH: QVQLVESGGGLVQAGGSLRLSCTASGRTGTIYSMAWFRQAPGKEREFLATVGWSSGITYYMDSVKGRFTISRDKGKNTVYLQMDSLKPEDTAVYYCTATRAYSVGYDYWGQGTQVTVSS
notes: Negative control in the PD-L1 staining; also called anti-caffeine Nb; CBD-anti-caffeine Nb
